In patent US7981997B2, “Growth factor which acts through ErbB-4 RTK” (Yeda Research And Development Co., priority 2000, dated 2011):

Tests used:
IgB-1 (soluble ErbB-1) = target: T1, IgB-1 (soluble ErbB-1) (Homo sapiens, UniProt P00533); assay: Covalent crosslinking of radiolabeled ligands to soluble ErbB-IgG fusion, cell-free; type: binding; details: 125I-labeled ligand, BS3 crosslinking
T1 construct: Recombinant soluble extracellular domains of the four ErbB proteins (denoted IgB-1 through 4); made in house; host or cells: HEK-293 human embryonic kidney cells (conditioned medium)
Experimental: The four soluble forms of ErbB proteins, in the form of IgG fusions (denoted IgB-1 through 4), were separately incubated with the indicated radiolabeled growth factors. Where indicated (lower panel), an excess (100-fold) of unlabeled NRG-4 was co-incubated with the labeled ligand. Following 2 hours at 22° C., the covalent crosslinking reagent bis(sulfosuccinimdyl)-suberate (BS^3) was added (1 mM) and 45 minutes later the ligand-receptor complexes were immunoprecipitated with agarose-immobilized protein-A beads.
For crosslinking with IgBs, after co-incubation of IgB-containing conditioned media with radiolabeled ligands, complexes were immunoprecipitated directly with Sepharose-protein A beads.
In the first assay, binding studies in a cell-free system were performed with recombinant soluble forms of all four ErbB proteins.

[1] = system: Chinese Hamster Ovary (CHO) cell line; assay: Binding to untransfected CHO cells (low ErbB-2, no other ErbB); details: cells express low amounts of ErbB-2, no other ErbB receptor
Experimental: To test the prediction that NRG-4 can recognize a surface-expressed ErbB-4, but no other membrane-bound ErbB protein, a Chinese Hamster Ovary (CHO) cell line was employed. […] CHO cells were transfected with plasmid vectors directing expression of ErbB-4, or co-transfected with an ErbB-4 plasmid together with vectors expressing one of the three other ErbB proteins. Two days later, cells were incubated with ^125I-NRG-4, or with a radiolabeled NRG-1 as control, and subsequently the formed ligand-receptor complexes were stabilized by using a covalent crosslinking reagent. Immunoprecipitation of the expressed ErbB proteins allowed analysis of the covalently held complexes. […] Nevertheless, both monomers and dimers of ErbB-4 were formed by the two ligands (detection of NRG-4-containing dimers required longer film exposures).

surface-expressed ErbB-4 = target: T2, surface-expressed ErbB-4 (Homo sapiens, UniProt Q15303); assay: Covalent crosslinking to CHO cells transfected with ErbB-4; type: binding; details: expression of ErbB-4 alone
T2 construct: expressed in transfected cells; host or cells: CHO (Chinese Hamster Ovary) cells
T2 sequence (Q15303 26-1308, species assumed): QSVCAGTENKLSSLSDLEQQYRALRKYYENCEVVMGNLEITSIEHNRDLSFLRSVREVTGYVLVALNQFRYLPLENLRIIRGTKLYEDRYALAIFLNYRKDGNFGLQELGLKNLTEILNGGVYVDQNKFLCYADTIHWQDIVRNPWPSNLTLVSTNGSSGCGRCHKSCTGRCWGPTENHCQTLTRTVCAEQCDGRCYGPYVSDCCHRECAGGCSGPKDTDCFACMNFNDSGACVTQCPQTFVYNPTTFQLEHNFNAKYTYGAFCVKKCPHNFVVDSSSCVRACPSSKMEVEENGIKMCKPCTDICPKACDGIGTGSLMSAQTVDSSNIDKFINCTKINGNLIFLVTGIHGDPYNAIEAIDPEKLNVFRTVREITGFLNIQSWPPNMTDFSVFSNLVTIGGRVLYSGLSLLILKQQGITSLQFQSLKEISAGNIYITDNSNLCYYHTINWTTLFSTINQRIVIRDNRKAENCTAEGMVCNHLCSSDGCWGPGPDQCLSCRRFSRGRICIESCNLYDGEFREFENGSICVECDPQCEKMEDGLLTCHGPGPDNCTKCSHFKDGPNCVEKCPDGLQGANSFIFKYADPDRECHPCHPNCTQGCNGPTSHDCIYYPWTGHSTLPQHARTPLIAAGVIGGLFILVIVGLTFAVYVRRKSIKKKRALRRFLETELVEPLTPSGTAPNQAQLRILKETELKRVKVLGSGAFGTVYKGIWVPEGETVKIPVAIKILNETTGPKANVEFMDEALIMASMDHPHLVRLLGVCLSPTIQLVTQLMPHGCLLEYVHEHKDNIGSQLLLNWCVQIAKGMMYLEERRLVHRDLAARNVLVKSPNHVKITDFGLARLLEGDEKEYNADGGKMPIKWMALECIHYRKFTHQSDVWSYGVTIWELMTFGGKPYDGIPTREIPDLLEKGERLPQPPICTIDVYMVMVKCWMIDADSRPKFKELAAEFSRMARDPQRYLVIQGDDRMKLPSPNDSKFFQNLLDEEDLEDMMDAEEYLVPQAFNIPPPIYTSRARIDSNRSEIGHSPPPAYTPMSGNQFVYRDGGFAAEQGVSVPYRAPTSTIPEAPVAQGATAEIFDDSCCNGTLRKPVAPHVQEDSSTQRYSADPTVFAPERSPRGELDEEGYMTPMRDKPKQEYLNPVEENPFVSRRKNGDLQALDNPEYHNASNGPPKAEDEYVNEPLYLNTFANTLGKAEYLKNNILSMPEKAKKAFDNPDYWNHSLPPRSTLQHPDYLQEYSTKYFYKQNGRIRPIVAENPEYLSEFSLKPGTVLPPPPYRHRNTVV
Experimental: (§1) CHO cells were transfected with vectors directing expression of the indicated ErbB proteins or their combinations. Two days later cell monolayers were incubated with either ^125I-NRG-1β or ^125I-NRG-4 (EGF-like domains, each at 100 ng/ml). Following 2 hours at 4° C., the covalent crosslinking reagent bis(sulfosuccinimdyl)-suberate (BS^3) was added (1 mM final concentration) and cell extracts prepared after an additional 45 minutes of incubation. The indicated ErbB proteins were then immunoprecipitated with mouse monoclonal antibodies, and the complexes resolved by gel electrophoresis and autoradiography. Arrows mark the locations of monomeric (M) and dimeric (D) receptor complexes.
(§2) Growth factors were labeled with Iodogen (Pierce) as described (Karunagaran et al., 1995). Chemical crosslinking to Chinese Hamster Ovary (CHO) cells engineered to express different ErbB combinations have been performed essentially as described (Tzahar et al., 1996). Briefly, radiolabeled ligands (at 100 ng/ml) were incubated for 2 hours with cell monolayers at 4 C. […] Non-specific binding was determined in the presence of a 100-fold molar excess of the unlabeled ligani. Cells were then washed, lysed in a solution containing 0.1 M NaOH and 0.1% SDS, and radioactivity determined by use of a gamma counter. […]

[2] = target: T3, ErbB-4 co-expressed with ErbB-3 (Homo sapiens, UniProt Q15303); assay: Covalent crosslinking to CHO cells co-transfected with ErbB-4 and ErbB-3; type: binding
T3 construct: expressed in transfected cells; host or cells: CHO (Chinese Hamster Ovary) cells, transient co-transfection
T3 sequence (Q15303 26-1308): as the sequence (Q15303 26-1308, species assumed) above
Experimental: as §1, §2

D1 cells = assay: Tyrosine phosphorylation and MAPK activation, immunoblotting; type: cell-based; details: doses as high as 1 μg/ml
Experimental: (§3) For receptor activation studies, derivatives of the 32D cell line were resuspended in phosphate-buffered solution (PBS) and incubated at 22 C for 15 minutes before adding growth factors and incubating for five minutes at 37 C. Cells were then pelleted and lysed in ice cold solubilization buffer [50 mM Tris-HCl pH 7.5, 150 mM NaCl, 1% Nonidet-P40, 0.5% Na-deoxycholate, 0.1% sodium dodecyl sulfate (SDS), 1.5 mM EDTA, 1.5 mM MgCl2, 2 mM Na-orthovanadate, 1 mM phenylmethylsulfonyl fluoride (PMSF), 10 µg/ml aprotinin and 10 µg/ml leupeptin] and left on ice for 15 minutes. The whole cell extract was then cleared by centrifugation (12,000×g for 10 minutes at 4 C), immediately boiled in reducing gel sample buffer, and resolved by 10% SDS PAGE before being transferred onto nitrocellulose. Filters were blocked in TBST buffer (0.02 M Tris-HCl pH 7.5, 0.15 M NaCl, 0.05% Tween-20) containing 1% milk for 40 minutes at 22 C, blotted with primary antibodies in TBST overnight at 4 C, followed by conjugation with a secondary antibody linked to horseradish peroxidase and subsequent detection by chemiluminescence (Amersham Corp.).
(§4) Evidently, NRG-4 binds to ErbB-4 and mediates cell proliferation through activation of this receptor. Because other ErbB ligands stimulate cell growth via tyrosine phosphorylation of their respective receptors and activation of the intervening mitogen-activated protein kinase (MAPK) cascade, these two signaling steps were tested in NRG-4-responsive myeloid cells expressing ErbB-4 (D4 and D24 cell lines). Cells were stimulated with 100 ng/ml of activating ligand for five minutes, followed by lysis and analysis by immunoblotting.

D12 cells = assay: as above; type: cell-based; details: doses as high as 1 μg/ml
Experimental: as §3, §4

D13 cells = assay: as above; type: cell-based; details: doses as high as 1 μg/ml
Experimental: as §3, §4

D2 cells = assay: as above; type: cell-based; details: doses as high as 1 μg/ml
Experimental: as §3, §4

D23 cells = assay: as above; type: cell-based; details: doses as high as 1 μg/ml
Experimental: as §3, §4

D3 cells = assay: as above; type: cell-based; details: doses as high as 1 μg/ml
Experimental: as §3, §4

B1: NRG-4: synthetic refolded mouse EGF-like domain of NRG-4 (residues 4 to 50, SEQ ID NO:2) (peptide, listed as Mus musculus)
chain: MPTDHEQPCGPRHRSFCLNGGICYVIPTIPSPFCRCIENYTGARCEEVFLPSSSIPSESNLSAAFVVLAVLLTLTIAALCFLCRKGHLQRASSVQCEISLVETNNTRTRHSHREH
In the case of B1, the “binding to IgB-1 (covalent crosslinking signal)” value (IgB-1 (soluble ErbB-1)) is reported as “low or no binding”, the “binding to untransfected CHO cells” value [1] is reported as “failed to bind” and the “covalent crosslinking signal compared with radioactive NRG-1” value (surface-expressed ErbB-4) is reported as “weaker than that observed with a radioactive NRG-1”. The “complex formation with ErbB-4 on CHO cells” value (surface-expressed ErbB-4; 125I-ligand 100 ng/ml) was “ability to form complexes”, the “effect of ErbB-3 co-expression on the radioactive signal” value ([2]; CHO cells, ErbB-4 + ErbB-3) was “did not significantly affect the radioactive signals” and the “heterodimerization of ErbB-3 with ErbB-4” value ([2]; following ligand binding) was “largely escaped heterodimerization”. For the same molecule, the “stimulation of D1 cells” value (D1 cells) was “did not stimulate”, the “stimulation of D12 cells” value (D12 cells) was “did not stimulate” and the “stimulation of D13 cells” value (D13 cells) was “did not stimulate”. For the same molecule, the “stimulation of D2 cells” value (D2 cells) was “did not stimulate”, the “stimulation of D23 cells” value (D23 cells) was “did not stimulate” and the “stimulation of D3 cells” value (D3 cells) was “did not stimulate”.
